Patent publication US20170107258A1 (CANCER RESEARCH TECHNOLOGY, published 2017)
[ ]: non-standard residue; d: D form. βSer = β-serine (lower case s in P1); βArg = β-arginine (lower case r); βLeu = β-leucine (lower case l)

T1: purified recombinant ADAM8
T1 sequence (Q05910 whole entry, species assumed, looked up): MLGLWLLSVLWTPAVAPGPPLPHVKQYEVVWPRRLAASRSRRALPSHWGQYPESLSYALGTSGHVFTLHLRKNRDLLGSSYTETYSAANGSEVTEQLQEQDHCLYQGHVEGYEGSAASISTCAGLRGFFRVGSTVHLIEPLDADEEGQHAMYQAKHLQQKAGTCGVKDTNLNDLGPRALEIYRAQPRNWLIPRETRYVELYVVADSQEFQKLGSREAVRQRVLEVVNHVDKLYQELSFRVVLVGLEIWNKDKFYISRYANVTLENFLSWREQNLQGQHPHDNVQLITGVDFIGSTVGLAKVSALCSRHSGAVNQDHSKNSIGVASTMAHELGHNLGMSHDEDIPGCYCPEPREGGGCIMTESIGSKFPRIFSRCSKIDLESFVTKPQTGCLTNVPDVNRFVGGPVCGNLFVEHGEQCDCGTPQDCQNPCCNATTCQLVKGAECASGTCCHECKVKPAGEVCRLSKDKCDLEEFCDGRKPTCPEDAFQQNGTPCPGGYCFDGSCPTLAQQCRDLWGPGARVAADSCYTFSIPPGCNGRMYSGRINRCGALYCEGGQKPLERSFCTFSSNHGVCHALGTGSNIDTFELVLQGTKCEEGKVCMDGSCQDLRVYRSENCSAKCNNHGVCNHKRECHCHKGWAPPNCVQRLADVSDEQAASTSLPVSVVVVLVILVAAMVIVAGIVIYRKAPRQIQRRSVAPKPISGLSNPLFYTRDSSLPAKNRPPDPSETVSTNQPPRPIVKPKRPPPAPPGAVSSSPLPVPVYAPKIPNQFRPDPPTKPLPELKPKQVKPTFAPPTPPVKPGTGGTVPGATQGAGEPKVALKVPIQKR


How the values were obtained:
Assay in all cases: cell-based or functional assay
[1] = target: T1, purified recombinant ADAM8
[2] = target: T1, purified recombinant ADAM8; remark: listed apart in the source
[3] = target: T1, purified recombinant ADAM8; remark: listed apart in the source

Row | A8 Inhibition (IC50) [1] [nM] | IC50 of inhibition of ADAM8 catalytic activity [2] [nM] | ADAM inhibition with P1 (IC50; CD23 fluorogenic substrate) [3] [nM] | Binder
1 | > 500 |  |  | cyclo([βArg]LSKDK) [cyclic peptide P2, c(rLSKDK)]
2 | 100 | ~50 | 100 | cyclo(RL[βSer]KDK) [cyclic peptide P1, c(RLsKDK), cyclo(Arg-Leu-{β-Ser}-Lys-Asp-Lys)]
3 | > 500 |  |  | cyclo(R[βLeu]SKDK) [cyclic peptide P3, c(RlSKDK)]
